Experiment: yeast display, Sf9 membrane polyspecificity reagent, FACS + sequencing; frameworks hold sequencing errors
Outline: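 Galactose-induced (36–48 hours) yeast carrying a synthetic nanobody display library were exposed to 10% biotinylated, detergent-solubilized Sf9 membrane reagent at 4 °C for 1 hour. FACS followed streptavidin microbead enrichment, using low and high (top ~1%) gates for expression (anti-HA) and reagent binding (streptavidin). Colony PCR, MiSeq 2 × 250 sequencing and CDR-length filtering followed. Labels for polyreactivity reflect the gate of origin.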

Row | Sequence | polyreactivity (PSR sort gate)
1 | QVQLEESGGGIVQAGGSLRLSCAASGSIFGGYAMGWYRQAPGKEREFFAAISWTSGRTTYADSVKGRFTISRDYAKNTVYLQMNSLKPEDTAVYNCAKRYGIWYPSYADRGSDYRYGYWGQGTQVTVSS | high polyreactivity
2 | QVQLEESGGGIVQAGGSLRLSSAASGRIYTPNAMGSYRQAPGKERELVAAITWSGGSTYYADSVKGRFTISRDNAKNTVYLQMNRLKPEDTAVYYCAVRYSRNLMYYWGQATQVTVSS | high polyreactivity
3 | QVQLEESGGGIVQAGRSLRLSCAASGITFDANTMGWYRQAPGKERELVAAITGGGSTNYADSVKGRFTISRDNAKNTVYLHMNSPKPEDTAVYYCPADLIYKYNYWGQGTQVTVSS | low polyreactivity
4 | QVQLEESGGGLDQAGGSLRLSCAASGIIFGYYAMGWYIQAPGKQSEFVAAINYSGVSTYYADSVKGRFTISLDNAKNTVYLEMHSLKPEDTAVYYCAAGPYAGVDPGYYYYWGKGTQVTVSS | low polyreactivity
5 | QVQLEESGGGLDQAGGSLRLSCAASGSTYAYAMGWYRQAPRKERELVAAITRSGGSTYYADSVKGRFTISRDNAKNTVYLQMNSLKPEDTAVYYCRGKSTTWRGSQMDYWGQGTQVTVSS | high polyreactivity
6 | QVQLEESGGGLDQAGVSLRLSCAASGRTFPSNTMGWYRQAPGKERELVAAISWRGGSTYYADSVKGRFTITRDNAKKTVYLQMNSLKPEDTAVYYCNTLTKAYRSKSYYEWGHGTQVTVSS | high polyreactivity
7 | QVQLEESGGGLFQAGGSLRLSCAASGRIFYGYAMGWSRQAPGKEMELVAAISSSGGSTYYADSVKGRFTISRDNAKNTVYLQRNSLKPEDTAVYYCNAKRYRPGYWYDYWGQGTQVTVSS | high polyreactivity
8 | QVQLEESGGGLFQAGGSLRLSCAASGSTIFSNAMGWYRQAPGKAREVVAAITSDGGTYYADSVKGRFTISRDNAKKTVYLQMNSLKPEDTAVYYCNVGSFTGHSYGFGYWGQGTQVTVSS | low polyreactivity
9 | QVQLEESGGGLVHAGGSLRLSCAASGSTFRPYAMGWYRQAPGKERELVAAIRKIGGRTYYADSVKGRFTISRDNAKNTVYLQMNSLKPEDTAVYYCNKRIGGGVHAYNYWGQGTQVTVSS | low polyreactivity
10 | QVQLEESGGGLVKEGGSLRLSCAASGSIFPINAMGWYRQAPGKERELVAAINGSGSTKYADSVKGRFTISRDNAKNTVYLQMNSLKPEDTAVYYCSTRGLRWAKYGYWGQVTQVTVSS | high polyreactivity
11 | QVQLEESGGGLVLAGGSLRLSCAAAGSTFVTNDMGWYRQAPGKERELGAAISVGGRTSYADSVKGRFTISRDNAKNTVYLQMNSLKPEESAVDYCAAQYSYTYWGQGTQVTVSS | low polyreactivity
12 | QVQLEESGGGLVQAGASLRLSCAASGFIFTSYAMGWYRQAPGKEREFVAASSRRGGSTYYADSVKGRFTISRDNAKNTVYLQMNILKPEYTAVYYCAADPKQHAGYEYWGQGTQVTVSS | high polyreactivity
13 | QVQLEESGGGLVQAGGRLRLSCAASGFIFWGNAMGWYRQAPGKERELVAGIRSLGGTTSYEDSVKGRFTISRDNAKNSVYLQINSLKPEDTAVYSCAAGYVAEFDYWGQVTQVTVSS | low polyreactivity
14 | QVQLEESGGGLVQAGGRLRLSCAASGIISAHYAMGWYRQAPGKERELVAAISSSGGSTYYADSVKGRFTISRDNAKNTVYLQMNSLKPEDTAVYYCNAEFYWGYDYWGQGTQVTVSS | low polyreactivity
15 | QVQLEESGGGLVQAGGSHRLSCAASGFIFDRNAMGWYRQAPGKERELVAAITRSGGNTYYADSVKGRFTISRDNAKNTVYLQMNSLKPEDTAVYYCAKDVIQWSVSASYRFGYWGQGTQVTVSS | high polyreactivity
16 | QVQLEESGGGLVQAGGSLPLSCAASGFIFGRYAMGWYRQAPGKEREFVASISWSGGSTYYADSVKGRFTISRDNAKNTVYLQMNSLKPEDTAVYYCAAYVRKDRSRGLYGYWGQGTQVTVSS | high polyreactivity
17 | QVQLEESGGGLVQAGGSLRFSCAASGITFDQNAMGWYRQAPGKEREFVAAISVSGGRTYYADSVKGPFTISRDNAKNSVYLQLNSLKPDDSAVYYCNADYAFYYPLEPLDVGYDYWGQGTQVTVSS | high polyreactivity
18 | QVQLEESGGGLVQAGGSLRFSCAASGSIFDYNAMGWYRQAPGTERELVAAITYSGGTTYADSVKGRFTISRDNAKNTVYLQMNSLKPEDTAVDYCAATSYDRFAYYYWGQGTQVTVSS | low polyreactivity
19 | QVQLEESGGGLVQAGGSLRFSCAASGSTFLHYAMGWYRPAPGQERALVAAITWSGGSTYYADSVKGRFTISRDNAKNTVSLQMNSLKPEDTAVYYCAADLTYLYDYHYDYWGQGTQVTVSS | low polyreactivity
20 | QVQLEESGGGLVQAGGSLRISCAASGRIFRKYTMGWYRQAPGKERELVAAITGTGGSTYYADSVKGRFTISRDNAKNTVYLQMNSLKPVVTAVYYCAADYSARYGYWGQGTQVTVSS | high polyreactivity
21 | QVQLEESGGGLVQAGGSLRISSAASGSTLGSNAMGWYRQAPGKEMELVAAITWSGGTTYYADSVKGRFTIARDNPKNTVSLQMNSLKPEDTAVYYCATGQSVIYRYEYWGQGTQVTVSS | low polyreactivity
22 | QVQLEESGGGLVQAGGSLRLICAASGGIFQKYAMGWYRQAPGKERELVASNNTGVRTYYADSVKGRFTISRDNAKNTVYLQMNSLKPEDTAVYYCNADGGGPRKYTRTRGHWGQGTQVTVSS | low polyreactivity

Row | Sequence | polyreactivity (PSR sort gate)
23 | QVQLEESGGGLVQAGGSLRLICAASGSIFDSNSMGWYRQAPGKVRELVAGISRGGGSTYYADSVKGRFTISRDNAKNTVYLQMNSLKPEDTAVYYCNVLTYRWLYARRYEYWGQGTQVTVSS | high polyreactivity
24 | QVQLEESGGGLVQAGGSLRLICAATGSIFSFYAMGWYRQAPGKEREWVAAIDVSGGSTYYADSVKGRFTISRDNAKNTVYLQMNSLKPEDTAVYYCAKDVRDQYDYWGQGTQVTVSS | low polyreactivity
25 | QVQLEESGGGLVQAGGSLRLSCAAAGINFTYYAMGWYRQAPGKERELVAAISYRGGSTYADSVKGRFTISRDNAKNTVYLPMNSLKPEDTAVYYFAADSPVPDSGEGYWGQGTQVTVSS | high polyreactivity
26 | QVQLEESGGGLVQAGGSLRLSCAASGFIFFAYAMGWYRQAPGKERELVAAISRTGGSTYYADSVKGRFTISRDNAKNTVYLLMNSLKPEDTAVYYCAAVVSRTYQWWTYDYWGQGTQVTVSS | high polyreactivity
27 | QVQLEESGGGLVQAGGSLRLSCAASGFIFFKYAMGWYRQAPGKEREFVAAISKSGTSTYYADSVKGRFTISRDNAKNTVYLQMNSLKPEDTAVYYCAKRYLTRYKGYYYWGQGTQVTVSS | high polyreactivity
28 | QVQLEESGGGLVQAGGSLRLSCAASGFIFGYYGMGWYRQAPGKERELVAAITDGGSTTYADSVKGRFTISRDNAKNTVYLQMNSLKPEDTAVYYCNAEAGGFDYYGKTYRYGDYWGQGTQVTVSS | low polyreactivity
29 | QVQLEESGGGLVQAGGSLRLSCAASGFIFVRNAMGWYRQAPGKERELVAAITRSGGSTSYADSVKGRFTISRDNAKNTVYLQMNSLKPEDTAVYYCAPQYGYWGQGTQVTVSS | high polyreactivity
30 | QVQLEESGGGLVQAGGSLRLSCAASGFIFYWYAMGWYIKAPGKERELVAAITRSGGRTYYADSVKGRFTFSRDNAKNTVYLQMNRLKPEDTAVYYCNAGYWLSPYKFGYWGQGTQVTVSS | high polyreactivity
31 | QVQLEESGGGLVQAGGSLRLSCAASGFIYRGYTMGWYRTAPGKERELVAGITSTASTNYADSVKGRFTISRDNAKNTVYLQMNSLKPEDTAVYYCAAGVPYRLRNRYYYWGQGTQVTVSS | high polyreactivity
32 | QVQLEESGGGLVQAGGSLRLSCAASGFSFVTYPMGWYRQAPGKEREFVATISRSGGSTYYADSVKGRFTISRDNAKNTVYLQMNSLKPEDTAVYYCAARGRYPYRYGYWGQGTQVTVSS | high polyreactivity
33 | QVQLEESGGGLVQAGGSLRLSCAASGFTFELYAMGWYRQAPGKVRELVAAISYSGGSTYYADSVKGRFTISRDNAKNTVYLQMNSLKPEDTAVYYCNAVYWPYSGPVYTIVDYWGQGTQVTVSS | low polyreactivity
34 | QVQLEESGGGLVQAGGSLRLSCAASGFTFGSYAMGWYRQAPGKEREFVAAISLGGARTYYADSVKGRFTMSRDNAKNTVYLQMHSLKPEDTAVYYGNARGIGRSTKWSSRDYWGQGTQVTVSS | high polyreactivity
35 | QVQLEESGGGLVQAGGSLRLSCAASGFTFNPYTMGWYRQAPGKERELVAAITSSGGSTYYADSVKGRFTISRDNAKNTVYLQMNSLKPEDTAVYYCAKLRTASIYDYWGQGTQVTVSS | low polyreactivity
36 | QVQLEESGGGLVQAGGSLRLSCAASGFTFPWNVMGWYRQAPGKEREFVAAISKSAGSTFYADSVKGRFTISRDNAKNTVYLQMNSLKPEDTAVYYCAKPRVPGVHVQEMYYWGQGTQVTVSS | low polyreactivity
37 | QVQLEESGGGLVQAGGSLRLSCAASGFTFRLYAMGWYRHAPGKERELFARISSGGSTHYADSVKGRFTISRDNAKNTVFLQMNSLKPEDTAVYYCAAGWGYWRSYGSWGQGTQVTFSS | high polyreactivity
38 | QVQLEESGGGLVQAGGSLRLSCAASGFTFRRYAMGWYRQAPGKERELVAAITRSGSSTYYADSVKGRFTISRDNAKNTVYLQMNSLKPEDTAVYYCARYHLRPTDGFDYWGQGTQVTVSS | high polyreactivity
39 | QVQLEESGGGLVQAGGSLRLSCAASGFTFSGYDMGWYRQAPGKERELVAGISSGGVSTTYADSVKGRFTISRDNAKNTVYLQMNSLKPEDTAVYYCNAEWTSFDWGQGTQVTVSS | low polyreactivity
40 | QVQLEESGGGLVQAGGSLRLSCAASGFTFSGYDMGWYSPAPGKERELVAGISYGGVSTTYADSVKGRFTISRDNAKNTVYVQMNSLKPEDTAVYYCNAEWTSFDWGQGTQVTVSS | low polyreactivity
41 | QVQLEESGGGLVQAGGSLRLSCAASGGTFTNYAMGWYRQAPGTERELVAAITDSGATTYYADSVKGRFTISRDNAKNTVYLQMNRLKPEDNAVYYCNAELDLYTDFDYWGQGTQVTESS | low polyreactivity
42 | QVQLEESGGGLVQAGGSLRLSCAASGIIFAYYAMGWYRQAPGKERELVGTNYADSVKGRFTISRDNAKNTVYLQMNSLKPEDTAVYYCAVVGGEFSSYGYWGQGTLVTVSS | low polyreactivity
43 | QVQLEESGGGLVQAGGSLRLSCAASGIIFSYYDMGRYRQAPGKERELVATITRKGGSTYYADTVKGRFTISRDYAKNTVYFQMNSLKPEDTAVYYCAAQTTVYIYDYWGQGSQVTVSS | low polyreactivity

From the nanobody polyreactivity screen of Harvey et al. (2022)
